Bridge positions count the residues as written; N and C are the ends. Ends that are not written are not given here.
Tests used:
[1] = target: T1, human collagen type I, acid soluble, extracted from placenta (Sigma C7774) (human, UniProt P02452 162-1218; P08123 80-1119); experiment: % binding to collagen I
T1 construct: tissue extract, gelled and dried in wells; also called dried human collagen; h-Collagen

[2] = target: T2, rat collagen, acid soluble, type I, rat tail (Upstate 08-115) (rat, UniProt P02454 152-1207; P02466 86-1125); experiment: % binding to collagen I
T2 construct: tissue extract, gelled and dried in wells; also called dried rat collagen
T2 sequence (P02454 152-1207, chain 1 of 2): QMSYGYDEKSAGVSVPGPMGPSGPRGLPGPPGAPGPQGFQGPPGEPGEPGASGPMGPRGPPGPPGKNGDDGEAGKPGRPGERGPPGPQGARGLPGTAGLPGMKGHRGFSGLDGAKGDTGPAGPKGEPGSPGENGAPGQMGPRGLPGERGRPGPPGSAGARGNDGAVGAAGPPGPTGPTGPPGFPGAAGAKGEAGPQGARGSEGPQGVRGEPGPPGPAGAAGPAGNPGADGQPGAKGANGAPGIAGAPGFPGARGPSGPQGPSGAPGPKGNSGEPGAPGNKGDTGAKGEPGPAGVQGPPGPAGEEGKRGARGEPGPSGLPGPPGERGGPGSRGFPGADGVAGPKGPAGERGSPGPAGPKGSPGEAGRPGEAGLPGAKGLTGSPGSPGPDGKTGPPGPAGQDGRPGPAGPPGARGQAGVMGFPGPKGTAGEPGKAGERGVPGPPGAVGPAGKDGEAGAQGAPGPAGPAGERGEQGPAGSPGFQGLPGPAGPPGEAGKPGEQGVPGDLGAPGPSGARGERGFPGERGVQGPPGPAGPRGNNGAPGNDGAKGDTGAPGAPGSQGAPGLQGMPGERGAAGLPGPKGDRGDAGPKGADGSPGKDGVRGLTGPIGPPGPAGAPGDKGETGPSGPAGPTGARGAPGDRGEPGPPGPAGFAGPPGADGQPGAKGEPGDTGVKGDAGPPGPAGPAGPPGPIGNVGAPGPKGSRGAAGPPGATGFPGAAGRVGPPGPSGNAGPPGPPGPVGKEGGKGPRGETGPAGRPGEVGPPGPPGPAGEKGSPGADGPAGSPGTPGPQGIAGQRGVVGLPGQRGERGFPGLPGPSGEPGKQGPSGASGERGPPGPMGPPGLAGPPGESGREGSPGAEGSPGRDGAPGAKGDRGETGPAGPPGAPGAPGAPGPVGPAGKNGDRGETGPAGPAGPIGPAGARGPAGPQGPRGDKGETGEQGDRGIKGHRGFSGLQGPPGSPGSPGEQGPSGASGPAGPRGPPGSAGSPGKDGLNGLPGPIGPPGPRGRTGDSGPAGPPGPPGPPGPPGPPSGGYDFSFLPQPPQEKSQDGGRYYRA
T2 sequence (P02466 86-1125, chain 2 of 2): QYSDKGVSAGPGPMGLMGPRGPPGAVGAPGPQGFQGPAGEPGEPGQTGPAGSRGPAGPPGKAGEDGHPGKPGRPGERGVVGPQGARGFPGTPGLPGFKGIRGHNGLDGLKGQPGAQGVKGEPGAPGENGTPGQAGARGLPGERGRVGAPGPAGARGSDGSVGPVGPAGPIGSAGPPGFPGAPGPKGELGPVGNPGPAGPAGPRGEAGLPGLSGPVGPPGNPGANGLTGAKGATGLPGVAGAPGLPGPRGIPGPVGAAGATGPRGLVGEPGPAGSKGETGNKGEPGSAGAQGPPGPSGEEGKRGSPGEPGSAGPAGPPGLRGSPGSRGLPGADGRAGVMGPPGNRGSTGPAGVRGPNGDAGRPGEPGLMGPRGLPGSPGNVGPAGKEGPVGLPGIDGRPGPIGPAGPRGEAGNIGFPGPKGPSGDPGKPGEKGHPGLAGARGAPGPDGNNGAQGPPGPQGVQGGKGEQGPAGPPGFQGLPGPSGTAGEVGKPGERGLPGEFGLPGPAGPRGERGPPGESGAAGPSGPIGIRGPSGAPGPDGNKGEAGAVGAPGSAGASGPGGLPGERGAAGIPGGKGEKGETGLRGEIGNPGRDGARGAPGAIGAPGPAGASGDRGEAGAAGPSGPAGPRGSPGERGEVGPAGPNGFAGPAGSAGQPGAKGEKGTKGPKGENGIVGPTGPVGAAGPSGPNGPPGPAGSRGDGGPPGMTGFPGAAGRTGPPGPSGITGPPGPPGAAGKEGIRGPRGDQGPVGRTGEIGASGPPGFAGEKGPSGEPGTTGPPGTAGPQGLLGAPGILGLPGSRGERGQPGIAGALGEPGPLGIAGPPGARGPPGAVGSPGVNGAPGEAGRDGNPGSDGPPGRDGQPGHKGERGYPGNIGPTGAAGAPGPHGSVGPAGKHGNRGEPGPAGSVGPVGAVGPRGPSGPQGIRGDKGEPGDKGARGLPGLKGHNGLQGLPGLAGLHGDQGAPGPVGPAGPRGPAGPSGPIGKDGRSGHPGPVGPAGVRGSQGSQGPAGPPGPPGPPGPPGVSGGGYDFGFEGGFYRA

T1 sequence (P02452 162-1218 limits assumed, chain 1 of 2): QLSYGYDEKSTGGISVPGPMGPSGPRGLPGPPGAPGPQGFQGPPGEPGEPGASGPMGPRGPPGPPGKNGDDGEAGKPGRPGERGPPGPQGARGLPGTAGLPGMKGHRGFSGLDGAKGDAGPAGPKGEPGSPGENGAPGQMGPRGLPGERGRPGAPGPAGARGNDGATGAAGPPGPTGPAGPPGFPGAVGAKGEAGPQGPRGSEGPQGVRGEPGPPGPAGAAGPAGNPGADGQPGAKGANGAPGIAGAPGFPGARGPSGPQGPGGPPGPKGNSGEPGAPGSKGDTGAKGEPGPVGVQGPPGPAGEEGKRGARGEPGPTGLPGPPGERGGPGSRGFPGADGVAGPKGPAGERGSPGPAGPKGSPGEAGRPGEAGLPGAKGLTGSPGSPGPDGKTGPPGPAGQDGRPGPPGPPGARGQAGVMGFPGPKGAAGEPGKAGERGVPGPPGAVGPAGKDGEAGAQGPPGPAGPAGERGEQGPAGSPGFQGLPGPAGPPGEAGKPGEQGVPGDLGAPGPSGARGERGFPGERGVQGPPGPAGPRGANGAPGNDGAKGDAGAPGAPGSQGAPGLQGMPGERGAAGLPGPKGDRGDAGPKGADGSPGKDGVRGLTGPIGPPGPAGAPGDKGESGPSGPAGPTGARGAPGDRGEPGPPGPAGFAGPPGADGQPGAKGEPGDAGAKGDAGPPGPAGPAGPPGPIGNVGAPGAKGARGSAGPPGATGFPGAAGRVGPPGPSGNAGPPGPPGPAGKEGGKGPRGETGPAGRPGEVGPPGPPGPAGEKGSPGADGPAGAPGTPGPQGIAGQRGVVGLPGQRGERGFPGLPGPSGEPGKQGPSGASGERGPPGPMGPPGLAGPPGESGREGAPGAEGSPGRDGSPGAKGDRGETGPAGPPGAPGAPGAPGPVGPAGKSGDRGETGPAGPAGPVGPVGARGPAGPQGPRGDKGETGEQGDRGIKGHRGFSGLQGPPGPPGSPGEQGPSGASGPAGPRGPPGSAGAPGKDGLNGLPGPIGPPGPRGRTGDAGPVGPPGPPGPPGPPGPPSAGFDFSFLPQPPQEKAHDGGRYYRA
T1 sequence (P08123 80-1119 limits assumed, chain 2 of 2): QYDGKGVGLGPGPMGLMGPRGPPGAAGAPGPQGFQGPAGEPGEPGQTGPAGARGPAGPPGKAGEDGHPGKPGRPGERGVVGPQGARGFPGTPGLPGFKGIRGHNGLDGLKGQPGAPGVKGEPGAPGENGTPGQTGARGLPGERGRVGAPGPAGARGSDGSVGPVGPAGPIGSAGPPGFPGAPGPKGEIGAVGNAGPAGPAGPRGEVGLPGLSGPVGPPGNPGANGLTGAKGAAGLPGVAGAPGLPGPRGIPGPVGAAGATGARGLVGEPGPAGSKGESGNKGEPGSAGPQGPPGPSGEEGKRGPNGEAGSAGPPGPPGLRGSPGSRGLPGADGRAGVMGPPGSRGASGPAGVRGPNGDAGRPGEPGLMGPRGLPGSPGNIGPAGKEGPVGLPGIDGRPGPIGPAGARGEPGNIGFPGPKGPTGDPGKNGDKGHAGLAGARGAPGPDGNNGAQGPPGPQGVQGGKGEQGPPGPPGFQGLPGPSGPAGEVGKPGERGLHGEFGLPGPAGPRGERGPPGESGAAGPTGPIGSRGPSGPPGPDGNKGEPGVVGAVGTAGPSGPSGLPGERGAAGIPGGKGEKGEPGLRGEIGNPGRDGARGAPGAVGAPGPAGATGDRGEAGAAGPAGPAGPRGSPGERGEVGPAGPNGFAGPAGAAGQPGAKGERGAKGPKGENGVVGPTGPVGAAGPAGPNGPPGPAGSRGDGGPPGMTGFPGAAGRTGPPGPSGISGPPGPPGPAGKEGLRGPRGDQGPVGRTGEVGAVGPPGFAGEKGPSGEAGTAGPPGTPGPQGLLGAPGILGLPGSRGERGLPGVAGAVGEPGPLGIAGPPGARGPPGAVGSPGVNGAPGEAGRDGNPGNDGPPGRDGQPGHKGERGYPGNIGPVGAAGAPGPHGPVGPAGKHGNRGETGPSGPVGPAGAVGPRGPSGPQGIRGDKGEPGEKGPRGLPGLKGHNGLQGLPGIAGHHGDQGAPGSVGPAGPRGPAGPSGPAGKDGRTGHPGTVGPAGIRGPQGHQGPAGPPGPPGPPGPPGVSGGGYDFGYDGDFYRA

% bound [1]: 60%
% bound [2]: 34%
B1: SEQ ID NO 196 (peptide)
peptide: WWTCHMTWSGQWDSCKWH-NH2
modifications: disulfide 4-15 (inferred); not fully specified (N-terminus); also: Gd chelated by DTPA

Reference: patent US20080044360A1 (COLLAGEN MEDICAL, published 2008)
